T1: Scc2 subunit of the cohesin loader (S. cerevisiae, UniProt Q04002 1-1493)
T1 construct: Scc2, budding yeast, as it stands in the purified Scc2-Scc4 complex; Present within m1 in the cross-linking experiment; tags as told under m1; source: subunit of Scc2-Scc4 purified from budding yeast (overexpressed)
T1 sequence (looked up): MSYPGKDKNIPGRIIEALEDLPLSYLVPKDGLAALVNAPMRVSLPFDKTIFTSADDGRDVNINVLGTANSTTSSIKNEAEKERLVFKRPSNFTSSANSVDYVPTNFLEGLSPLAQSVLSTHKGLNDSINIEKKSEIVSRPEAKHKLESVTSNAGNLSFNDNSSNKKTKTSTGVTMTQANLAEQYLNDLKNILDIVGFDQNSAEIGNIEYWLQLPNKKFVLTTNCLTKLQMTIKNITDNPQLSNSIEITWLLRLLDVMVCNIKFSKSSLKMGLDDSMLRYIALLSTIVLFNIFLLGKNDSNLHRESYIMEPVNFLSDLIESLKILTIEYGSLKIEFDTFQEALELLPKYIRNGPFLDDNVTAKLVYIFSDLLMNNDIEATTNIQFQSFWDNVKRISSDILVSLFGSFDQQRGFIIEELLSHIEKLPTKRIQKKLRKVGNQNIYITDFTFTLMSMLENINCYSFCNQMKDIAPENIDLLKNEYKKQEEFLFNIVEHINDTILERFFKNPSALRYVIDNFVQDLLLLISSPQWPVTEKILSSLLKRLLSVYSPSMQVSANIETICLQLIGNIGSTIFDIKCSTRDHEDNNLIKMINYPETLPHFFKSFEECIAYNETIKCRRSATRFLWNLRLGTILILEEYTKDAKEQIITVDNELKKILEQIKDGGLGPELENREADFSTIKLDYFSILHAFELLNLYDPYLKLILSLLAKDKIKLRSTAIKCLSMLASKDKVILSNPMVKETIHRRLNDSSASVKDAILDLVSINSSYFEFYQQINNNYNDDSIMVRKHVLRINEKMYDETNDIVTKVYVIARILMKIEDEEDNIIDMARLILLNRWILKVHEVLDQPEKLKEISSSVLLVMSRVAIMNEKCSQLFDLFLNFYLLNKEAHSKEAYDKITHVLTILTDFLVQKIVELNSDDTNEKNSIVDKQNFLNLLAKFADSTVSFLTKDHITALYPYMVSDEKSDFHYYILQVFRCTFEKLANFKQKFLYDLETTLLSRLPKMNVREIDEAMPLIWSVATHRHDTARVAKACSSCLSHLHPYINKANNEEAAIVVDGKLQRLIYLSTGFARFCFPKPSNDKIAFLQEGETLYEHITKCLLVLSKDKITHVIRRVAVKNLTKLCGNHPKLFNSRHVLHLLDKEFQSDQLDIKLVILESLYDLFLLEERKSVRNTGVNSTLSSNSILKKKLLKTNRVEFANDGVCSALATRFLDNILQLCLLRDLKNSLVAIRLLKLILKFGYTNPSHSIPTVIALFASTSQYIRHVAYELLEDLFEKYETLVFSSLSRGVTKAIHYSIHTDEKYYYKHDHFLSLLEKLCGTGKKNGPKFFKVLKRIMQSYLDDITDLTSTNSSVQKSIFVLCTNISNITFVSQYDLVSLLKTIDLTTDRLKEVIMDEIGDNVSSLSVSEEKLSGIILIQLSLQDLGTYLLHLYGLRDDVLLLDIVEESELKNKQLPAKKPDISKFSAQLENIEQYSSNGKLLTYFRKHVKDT

B1: Sth1 365-1097 fragment (ATPase motor module) (domain or fragment, S. cerevisiae, UniProt P32597 365-1097, looked up)
chain: DEQKRIERTAKQRLAALKSNDEEAYLKLLDQTKDTRITQLLRQTNSFLDSLSEAVRAQQNEAKILHGEEVQPITDEEREKTDYYEVAHRIKEKIDKQPSILVGGTLKEYQLRGLEWMVSLYNNHLNGILADEMGLGKTIQSISLITYLYEVKKDIGPFLVIVPLSTITNWTLEFEKWAPSLNTIIYKGTPNQRHSLQHQIRVGNFDVLLTTYEYIIKDKSLLSKHDWAHMIIDEGHRMKNAQSKLSFTISHYYRTRNRLILTGTPLQNNLPELWALLNFVLPKIFNSAKTFEDWFNTPFANTGTQEKLELTEEETLLIIRRLHKVLRPFLLRRLKKEVEKDLPDKVEKVIKCKLSGLQQQLYQQMLKHNALFVGAGTEGATKGGIKGLNNKIMQLRKICNHPFVFDEVEGVVNPSRGNSDLLFRVAGKFELLDRVLPKFKASGHRVLMFFQMTQVMDIMEDFLRMKDLKYMRLDGSTKTEERTEMLNAFNAPDSDYFCFLLSTRAGGLGLNLQTADTVIIFDTDWNPHQDLQAQDRAHRIGQKNEVRILRLITTDSVEEVILERAMQKLDIDGKVIQAGKFDNKSTAEEQEAFLRRLIESETNRDDDDKAELDDDELNDTLARSADEKILFDKIDKERMNQERADAKAQGLRVPPPRLIQLDELPKVFREDIEEHFKKEDSEPLGRIRQKKRVYYDDGLTEEQFLEAVEDDNMSLEDAIKKRREARERRRLRQ
notes: Cloned into pGEX-6P-2; also called Sth1 ATPase module; source: E. coli BL21 Star (DE3) pLysS, purified (glutathione-sepharose, 3C protease cleavage, Superdex 200)
B2: Scc4 subunit of the cohesin loader (natural protein, S. cerevisiae)
chain: MENLGDKLSISQVYHLAQEYRDHAYSIANKIGSEEGLKQYYGLMNMSIQMFQLLKTKCTLSVLEDSKVTFEMVELLIQETYNFDLAELYISSLKERLQTHQSDTDLVEEIMRCEFLLLHDLPLMRDSKFHYKIALRNCNELVQYMVNLQDELYQNWASVFQYVGVMLCIKLKQHRRVKTSFHGLLSQCREKSQWKWFLNLCYVNYLLNERFPIPEDALQELRSTELHTVGPELYAWKLALEMVIQLCKDGNITDHLNEFKNFFDTNKQSLVTNEGKGCVIKIMPRIALKVELPMIFHYKELKNILLLLQSVSYIVNCYDEKGNFSRKFLPKVYSTTQKLIKNIAAGGVSMNELDSRIQTYKSILEFCEFYKVWEQTLLKGAVVTTESPKLGPSPGYVRLLQAMKVQFEGGGAVEEYTRLAQSGGTSSEVKMISLLNCYTVQAARVSRCSGDKQGELVEQCNKVWLQVEKLLQETDLQFNPIWECTVTILWLFSHFEPFSWNPLPCSDKQRAEYVSKLREFYSSNKFVAGEAVADNRFKLKKALLLQILVNYLGGRMLEHDLGEIYAISAKCFDMCRQQGGMRKVQYVIGIWHLMNCTVAMRGKDVALTNAKLEALVKQITSVKQ
notes: Scc4, budding yeast, as it stands in the purified Scc2-Scc4 complex; Present within m1 in the cross-linking experiment; tags as told under m1; source: subunit of Scc2-Scc4 purified from budding yeast (overexpressed)
B3: Sth1, the large ATPase subunit of the RSC remodeler complex (natural protein, S. cerevisiae)
chain: MLQEQSELMSTVMNNTPTTVAALAAVAAASETNGKLGSEEQPEITIPKPRSSAQLEQLLYRYRAIQNHPKENKLEIKAIEDTFRNISRDQDIYETKLDTLRKSIDKGFQYDEDLLNKHLVALQLLEKDTDVPDYFLDLPDTKNDNTTAIEVDYSEKKPIKISADFNAKAKSLGLESKFSNATKTALGDPDTEIRISARISNRINELERLPANLGTYSLDDCLEFITKDDLSSRMDTFKIKALVELKSLKLLTKQKSIRQKLINNVASQAHHNIPYLRDSPFTAAAQRSVQIRSKVIVPQTVRLAEELERQQLLEKRKKERNLHLQKINSIIDFIKERQSEQWSRQERCFQFGRLGASLHNQMEKDEQKRIERTAKQRLAALKSNDEEAYLKLLDQTKDTRITQLLRQTNSFLDSLSEAVRAQQNEAKILHGEEVQPITDEEREKTDYYEVAHRIKEKIDKQPSILVGGTLKEYQLRGLEWMVSLYNNHLNGILADEMGLGKTIQSISLITYLYEVKKDIGPFLVIVPLSTITNWTLEFEKWAPSLNTIIYKGTPNQRHSLQHQIRVGNFDVLLTTYEYIIKDKSLLSKHDWAHMIIDEGHRMKNAQSKLSFTISHYYRTRNRLILTGTPLQNNLPELWALLNFVLPKIFNSAKTFEDWFNTPFANTGTQEKLELTEEETLLIIRRLHKVLRPFLLRRLKKEVEKDLPDKVEKVIKCKLSGLQQQLYQQMLKHNALFVGAGTEGATKGGIKGLNNKIMQLRKICNHPFVFDEVEGVVNPSRGNSDLLFRVAGKFELLDRVLPKFKASGHRVLMFFQMTQVMDIMEDFLRMKDLKYMRLDGSTKTEERTEMLNAFNAPDSDYFCFLLSTRAGGLGLNLQTADTVIIFDTDWNPHQDLQAQDRAHRIGQKNEVRILRLITTDSVEEVILERAMQKLDIDGKVIQAGKFDNKSTAEEQEAFLRRLIESETNRDDDDKAELDDDELNDTLARSADEKILFDKIDKERMNQERADAKAQGLRVPPPRLIQLDELPKVFREDIEEHFKKEDSEPLGRIRQKKRVYYDDGLTEEQFLEAVEDDNMSLEDAIKKRREARERRRLRQNGTKENEIETLENTPEASETSLIENNSFTAAVDEETNADKETTASRSKRRSSRKKRTISIVTAEDKENTQEESTSQENGGAKVEEEVKSSSVEIINGSESKKKKPKLTVKIKLNKTTVLENNDGKRAEEKPESKSPAKKTAAKKTKTKSKSLGIFPTVEKLVEEMREQLDEVDSHPRTSIFEKLPSKRDYPDYFKVIEKPMAIDIILKNCKNGTYKTLEEVRQALQTMFENARFYNEEGSWVYVDADKLNEFTDEWFKEHSS
notes: Sth1, budding yeast, as it stands in the purified RSC complex; Present within m2 in the cross-linking experiment; also called RSC ATPase; source: subunit of RSC purified from budding yeast (TAP-tagged Rsc2)

Legend:
Details in all cases: both partners purified
[1] = target: T2, Scc2-Scc4 cohesin loader complex (S. cerevisiae, UniProt Q04002 1-1493; P40090 1-624); experiment: co-IP; 50 nM Scc2-Scc4 and 50 nM RSC or Sth1 365-1097 mixed in IP buffer (25 mM Tris-HCl pH 7.5, 100 mM NaCl, 2.5 mM MgCl2, 0.2% Triton X-100, 5% glycerol, 0.5 mM TCEP), loader captured on anti-HA protein A magnetic beads, last wash 300 mM NaCl; Sth1 detected by immunoblotting
T2 construct: Scc2, cohesin loader subunit, budding yeast; Scc4, cohesin loader subunit, budding yeast; Purified by a protein A tag that was removed by 3C protease; also called 2-4

[2] = target: B3; experiment: cross-linking; 0.5 uM cohesin loader and 0.5 uM RSC in CLMS buffer (22.5 mM HEPES-KOH pH 7.5, 75 mM NaCl, 100 mM potassium acetate, 10% glycerol, 0.5 mM TCEP), 1 mM DSSO 15 min 37 C, trypsin digest, tandem mass spectrometry; two biological repeats
[3] = target: T1, Scc2 subunit of the cohesin loader; experiment: as above

Q: Does B1 bind [1]?
A: Result: binds

Q: Does B2 bind [2]?
A: Result: binds

Q: Does B3 bind [3]?
A: Result: binds
